Measurements from IntAct's records for PubMed 19732766.

B1: U3 small nucleolar RNA-associated protein 4 homolog (Homo sapiens), Q969X6 (parent)
chain: MGEFKVHRVRFFNYVPSGIRCVAYNNQSNRLAVSRTDGTVEIYNLSANYFQEKFFPGHESRATEALCWAEGQRLFSAGLNGEIMEYDLQALNIKYAMDAFGGPIWSMAASPSGSQLLVGCEDGSVKLFQITPDKIQFERNFDRQKSRILSLSWHPSGTHIAAGSIDYISVFDVKSGSAVHKMIVDRQYMGVSKRKCIVWGVAFLSDGTIISVDSAGKVQFWDSATGTLVKSHLIANADVQSIAVADQEDSFVVGTAEGTVFHFQLVPVTSNSSEKQWVRTKPFQHHTHDVRTVAHSPTALISGGTDTHLVFRPLMEKVEVKNYDAALRKITFPHRCLISCSKKRQLLLFQFAHHLELWRLGSTVATGKNGDTLPLSKNADHLLHLKTKGPENIICSCISPCGSWIAYSTVSRFFLYRLNYEHDNISLKRVSKMPAFLRSALQILFSEDSTKLFVASNQGALHIVQLSGGSFKHLHAFQPQSGTVEAMCLLAVSPDGNWLAASGTSAGVHVYNVKQLKLHCTVPAYNFPVTAMAIAPNTNNLVIAHSDQQVFEYSIPDKQYTDWSRTVQKQGFHHLWLQRDTPITHISFHPKRPMHILLHDAYMFCIIDKSLPLPNDKTLLYNPFPPTNESDVIRRRTAHAFKISKIYKPLLFMDLLDERTLVAVERPLDDIIAQLPPPIKKKKFGT

Variants of: B1
Conditions: with zep1_human HIVEP1, P15822

effect of a mutation on the interaction | Variant
decreasing interaction | R565W
